# Values of other authors in article PMC7101271.
# Target: Rab7 (UniProt P51149)
# Sequence of UniProt P51149 (P51149 2-207): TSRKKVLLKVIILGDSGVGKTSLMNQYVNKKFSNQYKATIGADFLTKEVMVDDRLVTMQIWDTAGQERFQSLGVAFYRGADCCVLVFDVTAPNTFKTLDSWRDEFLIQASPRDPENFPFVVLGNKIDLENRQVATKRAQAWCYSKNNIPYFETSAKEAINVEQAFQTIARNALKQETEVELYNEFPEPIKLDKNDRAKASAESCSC
substance,measurement,value
GDI (from UniProt P21856),Kd,> 50 µM
